Experimental data as given in patent US20030012792.

Target: alpha-1 antichymotrypsin (ACT, Sigma Chemical Co.) (UniProt P01011)
Sequence (P01011 24-423): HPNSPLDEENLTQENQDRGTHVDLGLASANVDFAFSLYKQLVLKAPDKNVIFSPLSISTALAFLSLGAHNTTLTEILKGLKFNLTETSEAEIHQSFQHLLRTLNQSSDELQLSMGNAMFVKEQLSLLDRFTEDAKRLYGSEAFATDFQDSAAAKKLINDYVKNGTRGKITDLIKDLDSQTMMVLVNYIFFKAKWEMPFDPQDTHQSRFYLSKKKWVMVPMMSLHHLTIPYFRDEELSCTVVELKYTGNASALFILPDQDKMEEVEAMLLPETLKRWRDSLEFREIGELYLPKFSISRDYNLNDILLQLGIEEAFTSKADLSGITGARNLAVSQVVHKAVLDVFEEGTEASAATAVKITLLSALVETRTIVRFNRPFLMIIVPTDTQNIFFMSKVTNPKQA

Substance: Human Prostate-Specific Antigen (purified human PSA, Vitro Diagnostics)
- proteolytic (serine protease) activity of PSA on synthetic substrate S-2586, absorbance at 405 nm: preincubation of PSA with ACT blocked both serine protease activity of purified PSA (FIG. 11)
